Assay results from PMC11618653.

Columns and labels:
[1] = target: cysteine desulfurase NFS1 (subunit of the (NIA)2 subcomplex) (human)
[2] = target: iron-sulfur scaffold protein ISCU2, iron-loaded (human) (UniProt Q9H1K1)
[3] = target: cysteine desulfurase NFS1 (subunit of the (NIA)2 subcomplex) (human); remark: listed apart in the source

Sequence of UniProt Q9H1K1 (Q9H1K1 35-167): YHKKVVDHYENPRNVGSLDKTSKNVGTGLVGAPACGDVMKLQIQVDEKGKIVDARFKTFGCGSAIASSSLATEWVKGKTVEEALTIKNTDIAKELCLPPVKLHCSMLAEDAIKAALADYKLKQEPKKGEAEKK

| initial rate of [2Fe-2S] cluster synthesis (CD) at 5 µM FDX2 variant, against wild-type FDX2 [1] [fold higher] | Substance | further results |
| --- | --- | --- |
| < 4 | FDX2 truncation variant lacking 5 C-terminal residues (ΔC5) (from UniProt Q6P4F2 53-181) (domain or fragment) | – |
| < 4 | FDX2 truncation variant lacking 10 C-terminal residues (ΔC10) (from UniProt Q6P4F2 53-176) (domain or fragment) | – |
| – | FDX2-CL variant (cluster-binding loop residues 109EASL112 replaced with GGSC) (from UniProt Q6P4F2 66-183) (natural protein) | initial rates of [2Fe-2S] cluster synthesis (CD) against the concentration of the FDX2 variant, maximum at 1.5 µM, against wild-type FDX2 [2]: 2 fold slower |
| – | FDX2-DA variant (Asp137-Asp138 exchanged to Ala) (from UniProt Q6P4F2 66-183) (natural protein) | initial rate of [2Fe-2S] cluster synthesis on ISCU2 (CD), dithionite-reduced ferredoxin, against dithionite-reduced wild-type FDX2 [3]: 4 fold slower |
